We go through one substance from paper PMC7390762.

This assay has as its target N-utilization substance (Nus) G, Escherichia coli (E. coli) (UniProt P0AFG0). The assay is described as follows: cryo-EM structure.

As a reminder, the stoichiometry N is a count of units in the complex or per binding partner.

Chain of UniProt P0AFG0 (P0AFG0 whole entry): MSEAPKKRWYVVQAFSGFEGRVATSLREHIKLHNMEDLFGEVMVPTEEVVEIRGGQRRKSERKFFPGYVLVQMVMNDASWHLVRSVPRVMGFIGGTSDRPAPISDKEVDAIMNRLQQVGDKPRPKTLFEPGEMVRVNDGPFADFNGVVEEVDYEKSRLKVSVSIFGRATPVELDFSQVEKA

“70S ribosome (E. coli), intact (from UniProt P0A7R5 5-102) (complex)” came in with a percent of particles with extra density at S10 of 5% and a stoichiometry N of 1.
